Source: patent publication US20040248244

What was measured:
[1] = target: GST-hUpf11019-1118 (GST fused to the carboxyl-terminal region of hUpf1, amino acids 1019-1118) (UniProt Q92900)
[2] = tested on: GST fusion protein containing the first 70 amino acids of p53 (GST-p531-70)
[3] = target: PHAS-I/4E-BP1 protein (UniProt Q13541)
[4] = tested on: GST-p531-70(S15A)

Chain of GST fusion protein containing the first 70 amino acids of p53 (GST-p531-70) (chain, as listed by the source): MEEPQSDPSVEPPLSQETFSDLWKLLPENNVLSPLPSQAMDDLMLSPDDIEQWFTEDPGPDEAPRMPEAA
Chain of GST-hUpf11019-1118 (GST fused to the carboxyl-terminal region of hUpf1, amino acids 1019-1118) (Q92900 1019-1118): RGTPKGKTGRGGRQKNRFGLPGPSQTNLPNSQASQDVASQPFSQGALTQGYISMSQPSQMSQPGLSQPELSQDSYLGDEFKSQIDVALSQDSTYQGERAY
Chain of PHAS-I/4E-BP1 protein (Q13541 whole entry): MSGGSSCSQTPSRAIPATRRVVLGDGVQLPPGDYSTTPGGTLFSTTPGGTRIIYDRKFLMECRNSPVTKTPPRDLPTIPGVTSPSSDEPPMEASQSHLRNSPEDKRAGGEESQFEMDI

| Substance | phosphorylation of substrate in immune complex kinase assay [1] | specific kinase activity in immune complex kinase assay [2] | phosphorylation of substrate in immune complex kinase assay [3] | phosphorylation of substrate in immune complex kinase assay [4] | phosphorylation of substrate in immune complex kinase assay, compared with GST-hUpf11019-1118 [2] | specific kinase activity in immune complex kinase assay (ratio of 32P incorporation into substrate to level of HA-tagged kinase) [2] |
| --- | --- | --- | --- | --- | --- | --- |
| HA-tagged wild-type ATM (HA-ATMWT) | phosphorylated by both ATM and ATX | the specific kinase activity of HA-ATXWT towards GST-p531-70 was significantly higher than that of HA-ATM | – | – | – | – |
| HA-tagged wild-type ATX (HA-ATXWT) | phosphorylated by both ATM and ATX, with the latter protein kinase showing the higher specific catalytic activity | – | poorly phosphorylated | nearly abolished | GST-p531-70 was more avidly phosphorylated by ATX than was the GST-hUpf11019-1118 substrate | the specific kinase activity of ATXWT was approximately 3.5-fold higher than that of ATMWT |
